Measured values reported in patent US10287569B2, “Enzyme for biosynthesis of isoprene and isopentenyl, and mutant thereof” (INSTITUTE OF MICROBIOLOGY, CHINESE ACADEMY OF SCIENCES, priority 2016, dated 2019).
Substitutions are numbered along the chain they refer to. Names and notes keep the numbering of the source.

T1: alkaliphilic Bacillus sp. N16-5 IspH protein, wild type, SEQ ID NO: 2 (Salipaludibacillus agaradhaerens, UniProt A0A9Q4B1R3)
T1 sequence (A0A9Q4B1R3 1-318): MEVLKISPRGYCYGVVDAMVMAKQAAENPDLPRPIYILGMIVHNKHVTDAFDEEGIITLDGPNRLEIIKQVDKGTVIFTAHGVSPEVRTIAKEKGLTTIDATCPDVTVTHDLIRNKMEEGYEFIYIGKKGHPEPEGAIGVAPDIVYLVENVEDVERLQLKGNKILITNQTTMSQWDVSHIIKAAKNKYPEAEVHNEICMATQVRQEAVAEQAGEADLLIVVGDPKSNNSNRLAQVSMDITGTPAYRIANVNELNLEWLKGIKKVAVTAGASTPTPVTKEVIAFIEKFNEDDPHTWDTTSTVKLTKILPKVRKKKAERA

B1: wild-type IspH: IspH protein from alkaliphilic Bacillus sp. N16-5, amino acid sequence SEQ ID NO: 2 (protein)
chain: T1 sequence (A0A9Q4B1R3 1-318)
modifications: Bacillus sp. N16-5
B2: IspH-E133Q: IspH mutant, glutamic acid to glutamine at position 133 of SEQ ID NO: 2 (SEQ ID NO: 4) (protein)
chain: T1 sequence (A0A9Q4B1R3 1-318) with E133Q
modifications: Mutant protein E133Q

What was measured:
[1] = target: T1, alkaliphilic Bacillus sp. N16-5 IspH protein, wild type, SEQ ID NO: 2; assay: Kinetic parameters of the enzymatic reaction converting DMAPP to isoamylene by wild-type IspH protein; assay type: biochemical; conditions: DMAPP as substrate to produce isoamylene; DMAPP 0-1.0 mM; pH 7.8, 37° C., 1 mM NADPH, ferredoxin/ferredoxin-NADP+ reductase, anaerobic
[2] = system: plant-derived isoprene synthase (IspS; EC 4.2.3.27); conditions: DMAPP as substrate to produce isoprene; background art; cited from earlier work
[3] = In vitro activity assay using HMBPP as a substrate (headspace gas GC-MS); assay type: biochemical; conditions: for Production of 2-methyl-2-butene or not / Production of 3-methyl-1-butene or not / Isoprene produced in the reaction system: 1 mM HMBPP, 0.5 μM protein, 37° C. 1 h, headspace gas; for Isoprene produced in the reaction system: ferredoxin, FNR, NADPH, anaerobic
Method: (§1) Under anaerobic conditions, in a sealed 5 ml chromatotube, IspH protein and its mutants were determined for their activity, wherein the reaction system comprised: 150 mM NaCl, 20 mM Tris-HCl (pH 7.8), 2 mM DTT, 1 mM NADPH, 1 mM HMBPP, 20 μM ferredoxin, 5 μM ferredoxin-NADP^+ reductase, and 0.5 μM IspH protein or its mutants (H131N and E133Q) obtained above; the total reaction volume was 500 μl; and the reaction condition was incubation at 37° C. for 1 h.
After the reaction, the headspace gas in the chromatotube was collected, and was subjected to gas chromatography-mass spectrometry (GC-MS). In brief, the gas was analyzed by Agilent Technologies 7890B GG/5977A MSD equipped with Agilent HP-PLOT Al2O3/S GC column (25 m, 0.32 mm, 8.00 μm, 7 inch cage), wherein He gas was used as a carrier gas at a flow rate of 2 ml/min. Later, the experimental data of the test sample (peak retention time, peak area, mass spectrogram, etc.) was compared with the experimental data of the standard substance (isoprene, 3-methyl-1-butene and 2-methyl-2-butene) to identify the gas components and perform quantitative analysis.

[4] = Acid treatment of the reaction solution to determine DMAPP (isoprene in headspace gas by GC-MS); assay type: biochemical; conditions: reaction solution of the HMBPP assay, 8M H2SO4, 37° C. 30 min; indicates DMAPP
Method: as §1
In addition, after the reaction, the reaction solution in the chromatotube was also analyzed to determine whether IPP and DMAPP were produced. Since DMAPP can spontaneously produce isoprene under acidic conditions, the amount of DMAPP in the reaction solution can be determined by determining the amount of isoprene produced in the reaction solution under acidic conditions. In brief, under anaerobic conditions, 50 μL reaction solution was put in another 5 ml chromatotube, and diluted with cold water to a volume of 500 μL, and an equal volume of 8M H2SO4 was added; then, the chromatotube was sealed immediately, and incubated at 37° C. for 30 min. After the incubation, the amount of isoprene in the headspace gas was determined by the above-mentioned GC-MS method, to determine whether the reaction solution contained DMAPP or not.

[5] = In vitro activity assay using DMAPP as a substrate (headspace gas GC-MS, kinetic parameters); assay type: biochemical; conditions: 1 mM DMAPP, 0.5 μM protein, 37° C. 1 h
Method: (§2) Under anaerobic conditions, in a sealed 5 ml chromatotube, IspH protein and its mutants were determined for their activity, wherein the reaction system comprised: 150 mM NaCl, 20 mM Tris-HCl (pH 7.8), 2 mM DTT, 1 mM NADPH, 1 mM DMAPP, 20 μM ferredoxin, 5 μM ferredoxin-NADP^+ reductase, and 0.5 μM IspH protein or its mutants (H131N and E133Q) obtained above; the total reaction volume was 500 μl; and the reaction condition was incubation at 37° C. for 1 h.
After the reaction, the headspace gas in the chromatotube was collected, and was subjected to gas chromatography-mass spectrometry (GC-MS).
In order to determine the kinetic parameters of the wild-type IspH protein, DMAPP at different concentrations (0, 0.1, 0.2, 0.3, 0.4, 0.5, 1.0 mM) was used to repeat the experiment.

[6] = In vitro activity assay using IPP as a substrate; assay type: biochemical
Method: as §2
In addition, IPP was used as a substrate to repeat the experiment.

Molecule | maximum reaction activity [1] | Km value [2] | Production of 2-methyl-2-butene or not [3] | Production of 3-methyl-1-butene or not [3] | Isoprene produced in the reaction system [3] [μg L^−1 OD^−1] | activity of converting HMBPP to isoamylene directly ([3]; headspace gas in different phases of the HMBPP assay) | products formed from HMBPP as a substrate (isoprene, isoamylene, IPP, DMAPP) ([3]; summary of the HMBPP assay) | isoprene produced by treating the reaction solution with acid [4] [μg L^−1 OD^−1] | conversion of DMAPP to isoamylene (2-methyl-2-butene and 3-methyl-1-butene) [5] | catalytic activity on IPP [6]
CC(C)=CCOP(=O)(O)OP(=O)(O)O [DMAPP, dimethylallyl pyrophosphate] | about 6.2 nmol min^−1 mg^−1 | reaches the level of mM |  |  |  |  |  |  |  | 
B1 |  |  | yes | yes | 104.4 | does not have the activity of converting HMBPP to isoamylene directly | can use HMBPP as a substrate to produce isoprene, isoamylene, IPP and DMAPP | 696.3 | produce isoamylene | none
B2 |  |  | no | no | 106.4 |  |  | 6.1 |  | 
